This note sets out measurements from publication PMC5877399 (Biomacromolecules, 2014).

The chains are these.
B1: PA2-Gd(DO3A), palmitoyl-MAAAEEEEK(DO3A:Gd)-NH2 (peptide)
peptide: MAAAEEEEK
modifications: not fully specified; palmitoyl on the N-terminus; K(DO3A:Gd); C-terminal amide (NH2)

The target of data set [1] is B1. The experiment in a line: fluorescence polarisation. (In general: In fluorescence polarisation assays a small probe gives low polarisation when free and higher when bound to something large.)
Data set [2] deals with T1, PA1-Gd(DO3A), palmitoyl-IAAAEEEEK(DO3A:Gd)-NH2 (not fully specified (residue 9); printed as palmitoyl-IAAAEEEEK(DO3A:Gd)-NH2; also: Gd complex of DO3A).
T1 peptide: Palmitoyl-IAAAEEEEK-NH2
The data set is described as follows: fluorescence polarisation.

Data set [3] deals with the molecule itself. The data set is described as follows: circular dichroism spectroscopy. A general note: Circular dichroism is widely used to follow secondary structure.

*: point of attachment. Ru(bipy)3 = tris(bipyridine)ruthenium complex attached to the Lys ε-amine via an NHS ester; Palmitoyl = CCCCCCCCCCCCCCCC(=O)*

Regarding Palmitoyl-MAAAEEEEK(Ru(bipy)3)-NH2 (also: Ru(bipy)3 via NHS ester linker, Ru complex) [PA2-Ru(bipy)3, palmitoyl-MAAAEEEEK[Ru(bipy)3]-NH2], the binding result in data set [1] is reported as “binds”. As for Palmitoyl-IAAAEEEEK(Ru(bipy)3)-NH2 (also: Ru(bipy)3 via NHS ester linker, Ru complex) [PA1-Ru(bipy)3, palmitoyl-IAAAEEEEK[Ru(bipy)3]-NH2], in data set [2], the binding result is “binds”. Turning to B1, the binding result in data set [3] was “binds”.
